Laboratory results from ChEMBL document CHEMBL2074203, “Multidrug resistance protein MRP1 protects against the toxicity of the major lipid peroxidation product 4-hydroxynonenal” (Biochem J, 2000).

Substrate: CCCCCC1OC(O)CC1SC[C@H](NC(=O)CC[C@H](N)C(=O)O)C(=O)NCC(=O)O
Assay: TP_TRANSPORTER: uptake in membrane vesicle from MRP1-expressing High Five insect cells
Format: functional, cell membranes, BTI-TN-5B1-4

B1: Multidrug resistance-associated protein 1 (Homo sapiens) (protein)
chain: MALRGFCSADGSDPLWDWNVTWNTSNPDFTKCFQNTVLVWVPCFYLWACFPFYFLYLSRHDRGYIQMTPLNKTKTALGFLLWIVCWADLFYSFWERSRGIFLAPVFLVSPTLLGITMLLATFLIQLERRKGVQSSGIMLTFWLVALVCALAILRSKIMTALKEDAQVDLFRDITFYVYFSLLLIQLVLSCFSDRSPLFSETIHDPNPCPESSASFLSRITFWWITGLIVRGYRQPLEGSDLWSLNKEDTSEQVVPVLVKNWKKECAKTRKQPVKVVYSSKDPAQPKESSKVDANEEVEALIVKSPQKEWNPSLFKVLYKTFGPYFLMSFFFKAIHDLMMFSGPQILKLLIKFVNDTKAPDWQGYFYTVLLFVTACLQTLVLHQYFHICFVSGMRIKTAVIGAVYRKALVITNSARKSSTVGEIVNLMSVDAQRFMDLATYINMIWSAPLQVILALYLLWLNLGPSVLAGVAVMVLMVPVNAVMAMKTKTYQVAHMKSKDNRIKLMNEILNGIKVLKLYAWELAFKDKVLAIRQEELKVLKKSAYLSAVGTFTWVCTPFLVALCTFAVYVTIDENNILDAQTAFVSLALFNILRFPLNILPMVISSIVQASVSLKRLRIFLSHEELEPDSIERRPVKDGGGTNSITVRNATFTWARSDPPTLNGITFSIPEGALVAVVGQVGCGKSSLLSALLAEMDKVEGHVAIKGSVAYVPQQAWIQNDSLRENILFGCQLEEPYYRSVIQACALLPDLEILPSGDRTEIGEKGVNLSGGQKQRVSLARAVYSNADIYLFDDPLSAVDAHVGKHIFENVIGPKGMLKNKTRILVTHSMSYLPQVDVIIVMSGGKISEMGSYQELLARDGAFAEFLRTYASTEQEQDAEENGVTGVSGPGKEAKQMENGMLVTDSAGKQLQRQLSSSSSYSGDISRHHNSTAELQKAEAKKEETWKLMEADKAQTGQVKLSVYWDYMKAIGLFISFLSIFLFMCNHVSALASNYWLSLWTDDPIVNGTQEHTKVRLSVYGALGISQGIAVFGYSMAVSIGGILASRCLHVDLLHSILRSPMSFFERTPSGNLVNRFSKELDTVDSMIPEVIKMFMGSLFNVIGACIVILLATPIAAIIIPPLGLIYFFVQRFYVASSRQLKRLESVSRSPVYSHFNETLLGVSVIRAFEEQERFIHQSDLKVDENQKAYYPSIVANRWLAVRLECVGNCIVLFAALFAVISRHSLSAGLVGLSVSYSLQVTTYLNWLVRMSSEMETNIVAVERLKEYSETEKEAPWQIQETAPPSSWPQVGRVEFRNYCLRYREDLDFVLRHINVTINGGEKVGIVGRTGAGKSSLTLGLFRINESAEGEIIIDGINIAKIGLHDLRFKITIIPQDPVLFSGSLRMNLDPFSQYSDEEVWTSLELAHLKDFVSALPDKLDHECAEGGENLSVGQRQLVCLARALLRKTKILVLDEATAAVDLETDDLIQSTIRTQFEDCTVLTIAHRLNTIMDYTRVIVLDKGEIQEYGAPSDLLQQRGLFYSMAKDAGLV
- Km: 1.6 µM
